From patent publication US20140193415A1 (Hoffmann-La Roche, published 2014) come the findings set out here.

First the molecules themselves.
B1: OA-Ak18-scFab-GA201 (bispecific antibody, V domains shown)
VH 1: QVELVESGGGVVQPGRSQRLSCAASGFTFSSYGMHWVRQAPGKGLEWVAIIWFDGSSTYYADSVRGRFTISRDNSKNTLYLQMNSLRAEDTAVYFCARELGRRYFDLWGRGTLVSVSS
VL 1: EIVLTQSPATLSLSPGERATLSCRASQSVSSYLAWYQQKPGQAPRLLIYDASKRATGIPARFSGSGSGTDFTLTISSLEPEDFAVYYCQQRSKWPPWTFGQGTKVESK
VH 2: QVQLVQSGAEVKKPGSSVKVSCKASGFTFTDYKIHWVRQAPGQGLEWMGYFNPNSGYSTYAQKFQGRVTITADKSTSTAYMELSSLRSEDTAVYYCARLSPGGYYVMDAWGQGTTVTVSS
VL 2: DIQMTQSPSSLSASVGDRVTITCRASQGINNYLNWYQQKPGKAPKRLIYNTNNLQTGVPSRFSGSGSGTEFTLTISSLQPEDFATYYCLQHNSFPTFGQGTKLEIKRT
B2: OA-F13B5-scFab-GA201 (bispecific antibody, human IgG1, kappa)
heavy 1: not shown
heavy 2: not shown
light: DIQMTQSPSSLSASVGDRVTITCRASQGINNYLNWYQQKPGKAPKRLIYNTNNLQTGVPSRFSGSGSGTEFTLTISSLQPEDFATYYCLQHNSFPTFGQGTKLEIKRTVAAPSVFIFPPSDEQLKSGTASVVCLLNNFYPREAKVQWKVDNALQSGNSQESVTEQDSKDSTYSLSSTLTLSKADYEKHKVYACEVTHQGLSSPVTKSFNRGEC
B3: OA-L31D11-scFab-GA201 (bispecific antibody, human IgG1, kappa)
heavy 1: not shown
heavy 2: not shown
light: DIQMTQSPSSLSASVGDRVTITCRASQGINNYLNWYQQKPGKAPKRLIYNTNNLQTGVPSRFSGSGSGTEFTLTISSLQPEDFATYYCLQHNSFPTFGQGTKLEIKRTVAAPSVFIFPPSDEQLKSGTASVVCLLNNFYPREAKVQWKVDNALQSGNSQESVTEQDSKDSTYSLSSTLTLSKADYEKHKVYACEVTHQGLSSPVTKSFNRGEC

In this test the target is human EGFR on human tumor cells (A549, BxPC3) (human, UniProt P00533 25-1200). Briefly: cell-based or functional assay.
With B1, the “Inhibition of EGFR phosphorylation (IC50) A549” value turned out to be 0.23 nM and the “Inhibition of EGFR phosphorylation (IC50) BxPC3” value is 1.67 nM.
Regarding B2, the “Inhibition of EGFR phosphorylation (IC50) A549” value came to 0.23 nM and the “Inhibition of EGFR phosphorylation (IC50) BxPC3” value worked out at 0.82 nM.
Taken in the same sequence, the figures for B3 were 0.19 nM and 0.47 nM.
